Assay results taken from the supplement of paper PMC12042874.
± gives the uncertainty stated by the source.

Assay: amyloid nucleation score (Sup35N fusion, yeast selection) (log enrichment); library NNK1; higher = more nucleation; inactive = no reads after selection
In short: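 Output and input plasmid inserts were sequenced by Illumina after psi-negative yeast carrying Sup35N fused to peptides of 20 random codons had been induced 24 hours with 100 μM copper sulfate and grown 7 days at 30°C on medium lacking adenine and uracil. The nucleation score is the DiMSum log enrichment of output over input reads, centred on the mode score of non-aggregating sequences. Sequences with under 100 input reads were excluded.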

| Substance | amyloid nucleation score |
| --- | --- |
| SRDVVSAGYKKCGYGMYCTK | 1.11 ± 0.37 |
| SRFHVKLRLYFGSNIARTSK | 6.618 ± 0.061 |
| SRGHDVRLTACDADGGLGLC | -0.17 ± 0.46 |
| SRISMVMVLSLFSVKFRWNP | 0.328 ± 0.24 |
| SRLLMKRIYYCVYPKGTTKK | inactive |
| SRNNCSNRRDYHGIYSMRIS | 0.513 ± 0.79 |
| SRRFYLTPELPVTHVCCVGK | 1.03 ± 0.62 |
| SRRKQIVGKVSVFFEASRFV | -1.06 ± 1.2 |
| SRVEWEDVYENVGGKGTSRE | -0.087 ± 0.44 |
| SRVNCYSSHSFSKYGRVGKS | -0.004 ± 0.59 |
| SRVRVLASVSFMTVRMVFEV | 0.436 ± 0.25 |
| SRWPAVVRTLFRSCKV | 0.48 ± 0.65 |
| SRYALLIYVLEDGCLAVLKP | 0.562 ± 1.2 |
| SRYYNILWNKVCRVRDNH | inactive |
| SSAFSLRLFDLSLNYFEFDE | -0.595 ± 0.68 |
| SSCNRRSHKP | -0.471 ± 0.54 |
| SSERGTWIMVARVQSVTNNV | inactive |
| SSEVRMTVVSLGPLMDRPNV | -0.243 ± 0.68 |
| SSFQIRVSVLRRHCISGLIY | 1.01 ± 0.79 |
| SSGDGRRAP | 0.335 ± 0.39 |
| SSIRNVTAICINGSRLINVL | 1.1 ± 0.54 |
| SSLGIGFAPLISSFISC | -0.429 ± 0.64 |
| SSLYETY | inactive |
| SSMMLDYCRSYCANISTKCQ | 0.675 ± 0.24 |
| SSRNSAAFLNHFDADRGLLP | 1.53 ± 0.14 |

| Substance | amyloid nucleation score |
| --- | --- |
| SSSFGHYDTWLYSSLFQGLT | 3.46 ± 0.14 |
| SSSHPSLIGNLDTRLNWMTM | 1.52 ± 0.32 |
| SSSVVSV | 0.102 ± 0.33 |
| SSSVYVVVEPDMNGLMGMRK | 0.08 ± 0.61 |
| SSSYVYYEGRFILTFGLF | -0.157 ± 0.47 |
| SSTGAVLIHNCTTRSVDLSG | 0.45 ± 0.69 |
| SSTLFMKSYIFDPQKLNSPP | 0.375 ± 0.42 |
| SSVLVLHYRTSG | 2.58 ± 0.09 |
| SSVYFSRFTERQKAVRETGS | inactive |
| SSWLC | 1.4 ± 0.47 |
| SSYDWCWSHVCFK | 0.8 ± 0.38 |
| SSYNLKYLWGCIC | 7.263 ± 0.048 |
| SSYVNRDCAFLWDD | 2.75 ± 0.19 |
| STDMYVPVPDTDWIICLRQL | -0.23 ± 0.56 |
| STDSCVALSMATWF | 0.188 ± 0.46 |
| STFMSILTSESTMRNGITNR | inactive |
| STKKLYTILRHWSYDFAESG | -0.509 ± 1.7 |
| STKQFFRLAFRGPWKTGHKP | 0.273 ± 0.96 |
| STKWLFGKNGVSLYLLSRRR | 2.58 ± 0.13 |
| STLFSWNRRNCDTHVLLVPW | inactive |
| STPNRLGPMPSWVGSTEAVV | -0.474 ± 1.1 |
| STRDQSDVMDRLTGEHHQQW | 0.363 ± 0.41 |
| STTILCLLI | 5.21 ± 0.061 |
| STTIPRVFGSTYNSYNVSIS | 0.384 ± 0.34 |
| STTPQRLNFDMSTPISWIRQ | 0.173 ± 0.32 |

| Substance | amyloid nucleation score |
| --- | --- |
| STTYCFFSYAGLRICYALMG | 1.3 ± 0.2 |
| STVRSAPFSWLPGKYGWSKC | -0.214 ± 0.98 |
| STYTALIFLHRSVFDLPSVQ | 0.787 ± 0.68 |
| SVCILHMRRSCVGKPPKYNA | inactive |
| SVELGSGLMMWGTNSKLTVV | 0.649 ± 0.76 |
| SVGYH | 0.699 ± 0.59 |
| SVILIGRRDDHASSIRVIGS | -0.752 ± 0.69 |
| SVIRDWLSGACSGTTEGRRT | -0.295 ± 0.43 |
| SVLCHCVLNVWLGWHLWIDP | 0.707 ± 0.53 |
| SVLGSHSRAKLITAWPTRKI | inactive |
| SVLKSITPNGPLLFSYVCSI | -1.56 ± 0.58 |
| SVLTGNVTGDDGLCKSSIYA | 0.515 ± 0.34 |
| SVLYRINP | -1.55 ± 2.4 |
| SVMAGSYITPVRMRKKKLFV | inactive |
| SVNLNFLFAL | 8.056 ± 0.056 |
| SVPDVVSYTKDTVVFNFGFT | 3.31 ± 0.083 |
| SVRVHFMVRHGLGVRLSASD | 1.61 ± 0.16 |
| SVRYYLLYHNFIMSSADKLS | 6.485 ± 0.05 |
| SVSLFMITVFNVTC | 2.4 ± 0.14 |
| SVVLCMNCGGCLMEIKGGGY | 4.89 ± 0.096 |
| SVWDGFSLRYPSLVYLRCGS | -0.634 ± 0.71 |
| SVYWKYLYP | 1.98 ± 0.098 |
| SWCLKDMSNMLLASIRRFVL | inactive |
| SWDSLGHYNGAIE | -0.268 ± 0.54 |
| SWHLDWFTYPFNKSD | inactive |

| Substance | amyloid nucleation score |
| --- | --- |
| SWSLALL | -0.278 ± 0.85 |
| SWTGMNSHSLKKHLGI | -0.447 ± 0.93 |
| SYAFLCNGSSRGLIIAMVLT | -0.057 ± 0.29 |
| SYAYKLETNSRFMIQWKVQY | 3.48 ± 0.092 |
| SYCLLIDLLLHSHVGLYSPM | 0.519 ± 0.33 |
| SYEHVGKPCSCGYGVEI | 0.735 ± 0.32 |
| SYFWYCGPSDDYNKPSCSMW | -0.441 ± 0.8 |
| SYGNVLVGHGV | -0.044 ± 0.61 |
| SYKGFRSGKVWCFNEASYTS | 1.18 ± 0.45 |
| SYLFVKGLIYSLSRLCLEVN | -1.4 ± 0.7 |
| SYLFVWFTSLLSDPQ | -0.716 ± 1.2 |
| SYLMQSFDKLCAA | -0.033 ± 1.1 |
| SYNFLRPYLLFSHPFSYDSS | 0.21 ± 0.6 |
| SYNMTITACSNGFPEQRDT | 0.062 ± 0.73 |
| SYSGTVCNRLRLVLVVDD | -0.098 ± 0.47 |
| SYSKGGMSPFWWTTHRCDIM | 2.09 ± 0.35 |
| SYVVETQFSSHFSVLWDLMF | -1.49 ± 1.2 |
| SYWCSHIIIERMLVLVHRIV | 1.19 ± 0.59 |
| TACPNSGNFERYGHYRSSSA | 1.12 ± 0.58 |
| TACRLQYSNSYLFLSSAEPV | 1.28 ± 0.69 |
| TAIDITTVLCIICRDPHINL | 8.364 ± 0.048 |
| TAKSFFRVHFSHWTRHSPSR | 4.16 ± 0.14 |
| TANTLRYSFCAT | -0.213 ± 0.32 |
| TAQMKDFSLRRNVGFVGSRW | inactive |
| TARWAKPVADNGCVNNTFLW | 2.15 ± 0.27 |

| Substance | amyloid nucleation score |
| --- | --- |
| TASFY | -0.41 ± 1.6 |
| TAWSSHPEV | -1.16 ± 2.4 |
| TCFMNVSTQFCMSYKAQRSV | 0.11 ± 0.59 |
| TCFTLGRPNSLFCDCIGHKS | -0.011 ± 0.29 |
| TCGLHQPFLGLFVSSSSIMT | 0.175 ± 0.41 |
| TCHSKSVCCLYGLCGGPEWG | 6.453 ± 0.055 |
| TCLADLDWSRGGGYYPHRLC | 0.372 ± 1.2 |
| TCLHYAVCMRSLVSQSALFV | -0.771 ± 1.7 |
| TCLMRSRLACMFVRINEW | 1.19 ± 0.62 |
| TCLTY | -0.846 ± 2.4 |
| TCNNRSSSCR | 1.1 ± 0.61 |
| TCRIVVGSSCFRSTVFSFLY | 1.45 ± 0.68 |
| TCRVEMPSCCCFSGIVGCDR | 3.53 ± 0.067 |
| TCSLNLYLDSDVFLCLCCLW | 5.65 ± 0.074 |
| TDAPP | 0.126 ± 1.1 |
| TDCGSTMNGGCINMCVCGHR | 7.422 ± 0.069 |
| TDCQRYI | 1.6 ± 0.54 |
| TDFPELWSNLFQPNGFRYGL | 0.114 ± 0.92 |
| TDGTLIGSY | 0.128 ± 0.44 |
| TDLKLWH | 0.136 ± 1.2 |
| TDSILKRYGMSFDFWRSWRN | 0.76 ± 0.23 |
| TEFSNAPPHTSAMVAYVLSY | -1.52 ± 1.7 |
| TERFMYFKNLFVSSWTSHG | 1.51 ± 0.14 |
| TFAFISLDMVWLASAH | -0.051 ± 0.26 |
| TFCRLISGPKIRL | -0.058 ± 0.42 |

| Substance | amyloid nucleation score |
| --- | --- |
| TFGDWHKLRWRRSQPKCWSG | 0.299 ± 0.36 |
| TFGINRYNFRISARIGQVCI | -0.284 ± 0.22 |
| TFLIFDLN | 4.56 ± 0.062 |
| TFRFSGYSLNISFKNCEHYV | inactive |
| TFRQVPAQFNMASRDKNSTI | inactive |
| TFSFFDRVLSLFLN | -0.179 ± 0.44 |
| TFTGDKIPIYSGVTVMASGM | 0.715 ± 0.84 |
| TFTMSWLK | 3.22 ± 0.078 |
| TFTWGRMRSSSVDSCVKSWA | 1.2 ± 0.37 |
| TFVCIMFLDSSFSSENYGRL | 1.7 ± 0.16 |
| TFVSL | 0.332 ± 0.49 |
| TFVYVKASLSSTIAASYVAQ | 1.34 ± 0.27 |
| TFYVRDRAGCPW | 1.33 ± 0.73 |
| TGCHKS | 0.915 ± 0.97 |
| TGDRCWLFEGYAFKEHCFAD | 2.54 ± 0.13 |
| TGLSSYM | -0.701 ± 0.97 |
| TGLVWYYCHSHRWNFRPCQW | 0.173 ± 0.55 |
| TGQACAWGGSVILTVSCDRY | 2.43 ± 0.12 |
| TGRSIMPLSYRTYCIDEFVS | 0.004 ± 0.3 |
| TGRVFLLYAAQ | -0.368 ± 0.88 |
| TGVTHC | inactive |
| THNWNNSYSWSPPDALVSCK | 0.263 ± 0.51 |
| TIDKNNMESFITGFFGVRIL | 1.3 ± 0.4 |
| TILMASTSYFIPSLP | 1.38 ± 0.21 |
| TISKLGQPYRRNSKPL | -0.378 ± 0.41 |

| Substance | amyloid nucleation score |
| --- | --- |
| TISSLNLTRLSLDIFDFQSQ | 3.25 ± 0.21 |
| TKCGIAYFTQICLVPDVSNS | 7.04 ± 0.085 |
| TKCIINEIVDDG | -1.35 ± 2.4 |
| TKTSTSFGRVKPVN | 0.793 ± 0.85 |
| TLCFQTISPRRPQLRWTWAH | 0.875 ± 0.61 |
| TLCIVNIGSFVEDEKGDN | 7.19 ± 0.073 |
| TLFCYADMWYNLYHRIVKVR | 1.52 ± 0.48 |
| TLFYFMACGQLLFGKRWNWF | 0.095 ± 0.58 |
| TLLPIKHSCHGNWINQLYGT | -0.485 ± 0.32 |
| TLMRCVFLLYYPCGYIKSDL | 0.551 ± 0.31 |
| TLPTKTTPSAFAVNEVTFLT | -0.573 ± 0.4 |
| TLRLAREGWWEWKHVSRGEY | -0.033 ± 0.26 |
| TLRVLFCRTMRRVDWSVQKV | -1.03 ± 1.7 |
| TLSGSYVF | -0.567 ± 0.3 |
| TLSVFREWSCLGMLLGYHNL | inactive |
| TLYCTFSTWYPLYKLQHDRY | 4.55 ± 0.14 |
| TMDGHLGYRSRNILLLSVFV | -0.41 ± 0.55 |
| TMLMNEWGMLLNKWEWA | -0.398 ± 1.1 |
| TNDEGPVRLNFNISR | -0.389 ± 0.26 |
